Reference: PMC7865074

Biological target: full-length (FL) NS5 protein (wt PBM) of West Nile virus (West Nile virus)
Assay: split reporter (BiFC, NanoBiT); N2H split-NanoLuc in HEK-293T cells; full-length NS5 with 257 single PDZ domains; read-out NLR with NS5 minus NLR with NS5ΔPBM, three experiments; hits > 0.25

B1: 26S proteasome non-ATPase regulatory subunit 9, PDZ domain (N2H construct) (domain or fragment)
chain: QARDMAEAHKEAMSRKLGQSESQGPPRAFAKVNSISPGSPASIAGLQVDDEIVEFGSVNTQNFQSLHNIGSVVQHSEGKPLNVTVIRR
NLR(NS5) - NLR(NS5ΔPBM): 1.21

B2: Ligand of Numb protein X 2, PDZ domain 2 (N2H construct) (domain or fragment)
chain: QVALHKRDSGEQLGIKLVRRTDEPGVFILDLLEGGLAAQDGRLSSNDRVLAINGHDLKYGTPELAAQIIQASGERVNLTIARPG
NLR(NS5) - NLR(NS5ΔPBM): 0.25

B3: Rho guanine nucleotide exchange factor 12, PDZ domain (N2H construct) (domain or fragment)
chain: CVIIQKDDNGFGLTVSGDNPVFVQSVKEDGAAMRAGVQTGDRIIKVNGTLVTHSNHLEVVKLIKSGSYVALTVQGRPPGS
NLR(NS5) - NLR(NS5ΔPBM): < 0.25

B4: Synaptojanin-2-binding protein, PDZ domain (N2H construct) (domain or fragment)
chain: EINLTRGPSGLGFNIVGGTDQQYVSNDSGIYVSRIKENGAAALDGRLQEGDKILSVNGQDLKNLLHQDAVDLFRNAGYAVSLRVQHRL
NLR(NS5) - NLR(NS5ΔPBM): < 0.25

B5: Rho GTPase-activating protein 21, PDZ domain (N2H construct) (domain or fragment)
chain: TVTLKRTSQGFGFTLRHFIVYPPESAIQFSYKDEENGNRGGKQRNRLEPMDTIFVKQVKEGGPAFEAGLCTGDRIIKVNGESVIGKTYSQVIALIQNSDTTLELSVMPKD
NLR(NS5) - NLR(NS5ΔPBM): < 0.25

B6: T-lymphoma invasion and metastasis-inducing protein 2, PDZ domain (N2H construct) (domain or fragment)
chain: DVQLTKTGSVCDFGFAVTAQVDERQHLSRIFISDVLPDGLAYGEGLRKGNEIMTLNGEAVSDLDLKQMEALFSEKSVGLTLIARPPD
NLR(NS5) - NLR(NS5ΔPBM): 0.65

B7: Zona Occludens 3; Tight Junction Protein 3, PDZ domain 3 (N2H construct) (domain or fragment)
chain: DTRVVRFLKGKSIGLRLAGGNDVGIFVSGVQAGSPADGQGIQEGDQILQVNDVPFQNLTREEAVQFL
NLR(NS5) - NLR(NS5ΔPBM): 0.72

B8: PDZ domain-containing protein GIPC3, PDZ domain (N2H construct) (domain or fragment)
chain: EVEVTKTEDALGLTITDNGAGYAFIKRIKEGSIINRIEAVCVGDSIEAINDHSIVGCRHYEVAKMLRELPKSQPFTLRLVQ
NLR(NS5) - NLR(NS5ΔPBM): 2.15

B9: PDZ and LIM domain protein 1, PDZ domain (N2H construct) (domain or fragment)
chain: TQQIDLQGPGPWGFRLVGGKDFEQPLAISRVTPGSKAALANLCIGDVITAIDGENTSNMTHLEAQNRIKGCTDNLTLTVARSE
NLR(NS5) - NLR(NS5ΔPBM): 27.2

B10: Regulating synaptic membrane exocytosis protein 2, PDZ domain (N2H construct) (domain or fragment)
chain: DGSVPRDSGAMLGLKVVGGKMTESGRLCAFITKVKKGSLADTVGHLRPGDEVLEWNGRLLQGATFEEVYNIILESKPEPQVELVVSR
NLR(NS5) - NLR(NS5ΔPBM): 11.2

B11: Partitioning defective 3 homolog B, PDZ domain 1 (N2H construct) (domain or fragment)
chain: TRTVEISGEGGPLGIHVVPFFSSLSGRILGLFIRGIEDNSRSKREGLFHENECIVKINNVDLVDKTFAQAQDVFRQAMKSPSVLLHVLP
NLR(NS5) - NLR(NS5ΔPBM): 0.42

B12: SH3 and multiple ankyrin repeat domains protein 1, PDZ domain (N2H construct) (domain or fragment)
chain: TVLLQKKDSEGFGFVLRGAKAQTPIEEFTPTPAFPALQYLESVDEGGVAWRAGLRMGDFLIEVNGQNVVKVGHRQVVNMIRQGGNTLMVKVVMVT
NLR(NS5) - NLR(NS5ΔPBM): 1.66

B13: Protein piccolo, PDZ domain (N2H construct) (domain or fragment)
chain: RIKITRDSKDHTVSGNGLGIRIVGGKEIPGHSGEIGAYIAKILPGGSAEQTGKLMEGMQVLEWNGIPLTSKTYEEVQSIISQQSGEAEICVRLDL
NLR(NS5) - NLR(NS5ΔPBM): 0.57

B14: SH3 and multiple ankyrin repeat domains protein 3, PDZ domain (N2H construct) (domain or fragment)
chain: VAVLQKRDHEGFGFVLRGAKAETPIEEFTPTPAFPALQYLESVDVEGVAWRAGLRTGDFLIEVNGVNVVKVGHKQVVALIRQGGNRLVMKVVSVT
NLR(NS5) - NLR(NS5ΔPBM): < 0.25

B15: Membrane-associated guanylate kinase, WW and PDZ domain-containing protein 2, PDZ domain 1 (N2H construct) (domain or fragment)
chain: ESVIGRNPEGQLGFELKGGAENGQFPYLGEVKPGKVAYESGSKLVSEELLLEVNETPVAGLTIRDVLAVIKHCKDPLRLKCVKQG
NLR(NS5) - NLR(NS5ΔPBM): 0.26

B16: MAGUK p55 subfamily member 5, PDZ domain (N2H construct) (domain or fragment)
chain: IVRIEKARDIPLGATVRNEMDSVIISRIVKGGAAEKSGLLHEGDEVLEINGIEIRGKDVNEVFDLLSDMHGTLTFVLIPSQ
NLR(NS5) - NLR(NS5ΔPBM): 0.26

B17: SH3 and multiple ankyrin repeat domains protein 2, PDZ domain (N2H construct) (domain or fragment)
chain: TVVLQKKDNEGFGFVLRGAKADTPIEEFTPTPAFPALQYLESVDEGGVAWQAGLRTGDFLIEVNNENVVKVGHRQVVNMIRQGGNHLVLKVVTVT
NLR(NS5) - NLR(NS5ΔPBM): < 0.25

B18: Zona Occludens 3; Tight Junction Protein 3, PDZ domain 1 (N2H construct) (domain or fragment)
chain: TATLSKDPRRGFGIAISGGRDRPGGSMVVSDVVPGGPAEGRLQTGDHIVMVNGVSMENATSAFAIQILKTCTKMANITVKRPR
NLR(NS5) - NLR(NS5ΔPBM): 3.05

B19: PDZ domain-containing protein 2, PDZ domain 2 (N2H construct) (domain or fragment)
chain: KMELLKESDGLGIQVSGGRGSKRSPHAIVVTQVKEGGAAHRDGRLSLGDELLVINGHLLVGLSHEEAVAILRSATGMVQLVVASKE
NLR(NS5) - NLR(NS5ΔPBM): 0.49

B20: Whirlin, PDZ domain 3 (N2H construct) (domain or fragment)
chain: LVRVKKSAATLGIAIEGGANTRQPLPRIVTIQRGGSAHNCGQLKVGHVILEVNGLTLRGKEHREAARIIAEAFKTKDRDYIDFL
NLR(NS5) - NLR(NS5ΔPBM): 0.38

B21: Beta-1-syntrophin, PDZ domain (N2H construct) (domain or fragment)
chain: GVKVLKQELGGLGISIKGGKENKMPILISKIFKGLAADQTQALYVGDAILSVNGADLRDATHDEAVQALKRAGKEVLLEVKYMR
NLR(NS5) - NLR(NS5ΔPBM): < 0.25

B22: PDZ domain-containing protein 4, PDZ domain (N2H construct) (domain or fragment)
chain: EVELYKSSHRDKLGLMVCYRTDDEEDLGIYVGEVNPNSIAAKDGRIREGDRIIQINGVDVQNREEAVAILSQEENTNISLLVARP
NLR(NS5) - NLR(NS5ΔPBM): 0.85

B23: MPDZ, PDZ domain 6 (N2H construct) (domain or fragment)
chain: TINIAKGNSSLGMTVSANKDGLGMIVRSIIHGGAISRDGRIAIGDCILSINEESTISVTNAQARAMLRRHSLIGPDIKITYV
NLR(NS5) - NLR(NS5ΔPBM): 0.38
